# Experiments:
# Test in all cases: GST pulldown, Western blot densitometry
# Conditions in all cases: incubated overnight with lysates; GST-only control 10 (PA2 lysate), 8 (WT lysate)
# [1] = target: GST-tagged CMS SH3 domain III
# [2] = target: GST-tagged CMS SH3 domain II
# [3] = target: GST-tagged CMS SH3 domain I
substance,measurement,setting,value
HCV NS5A protein (WT) expressed from SGR-neo-JFH-1 (from UniProt Q99IB8) PA2: P2 motif PTPPPR -> ATPAAA (P->A; P->A; P->A; R->A; residue numbers not printed),response (NS5A:GST-SH3 ratio (%)),[1],10
same,response (NS5A:GST-SH3 ratio (%)),[2],9
same,response (NS5A:GST-SH3 ratio (%)),[3],16
